Tests used:
[1] = molecular target: the molecule itself; assay: AUC
[2] = molecular target: the molecule itself; assay: AUC; remark: listed apart in the source

B1: GluR6 amino terminal domain (GluR6 R1R2 ATD, residues 1-389) expressed in wild type HEK293 cells (domain or fragment)
chain: TTHVLRFGGIFEYVESGPMGAEELAFRFAVNTINRNRTLLPNTTLTYDTQKINLYDSFEASKKACDQLSLGVAAIFGPSHSSSANAVQSICNALGVPHIQTRWKHQVSDNKDSFYVSLYPDFSSLSRAILDLVQFFKWKTVTVVYDDSTGLIRLQELIKAPSRYNLRLKIRQLPADTKDAKPLLKEMKRGKEFHVIFDCSHEMAAGILKQALAMGMMTEYYHYIFTTLDLFALDVEPYRYSGVNMTGFRILNTENTQVSSIIEKWSMERLQAPPKPDSGLLDGFMTTDAALMYDAVHVVSVAVQQFPQMTVSSLQCNRHKPWRFGTRFMSLIKEAHWEGLTGRITFNKTNGLRTDFDLDVISLKEEGLEKIGTWDPASGLNMTESQKGK
modifications: N-linked glycans at five sites, non uniform (complex) glycosylation
- stoichiometry N [1]: 2
- Kd [2]: 11.3 µM
